Assay results reported in publication PMC6660772.

B1: KAP1 RBCC (residues 50-413), wild type [human] / itself (parent)
chain: SPAGGGAEALELLEHCGVCRERLRPEREPRLLPCLHSACSACLGPAAPAAANSSGDGGAAGDGTVVDCPVCKQQCFSKDIVENYFMRDSGSKAATDAQDANQCCTSCEDNAPATSYCVECSEPLCETCVEAHQRVKYTKDHTVRSTGPAKSRDGERTVYCNVHKHEPLVLFCESCDTLTCRDCQLNAHKDHQYQFLEDAVRNQRKLLASLVKRLGDKHATLQKSTKEVRSSIRQVSDVQKRVQVDVKMAILQIMKELNKRGRVLVNDAQKVTEGQQERLERQHWTMTKIQKHQEHILRFASWALESDNNTALLLSKKLIYFQLHRALKMIVDPVEPHGEMKFQWDLNAWTKSAEAFGKIVAERP

Variants of: B1
Experiment: SEC-MALS
Details: with itself; mutant 179 µM; WT 159 µM; read off a plot

Variant | screen value [kDa]
chain 1 A111D T114A E126R | 95
